# Data as given in publication PMC13397619.
# B1: NLV2 TCR alpha chain (CDR3α only) (parent)
# chain: AGPMKTSYDKVI
# partner: MLVPMVATV
# Variants of: B1
# Assay: T-Switch: Jurkat TCRβ−/− cells expressing a CDR3 saturation-mutagenesis library, stained with two peptide-HLA-A*02:01 tetramers (original and novel peptide) plus anti-CD3, FACS-sorted into four gates, gDNA sequenced
# Settings: with HLA-A*02:01 with peptide … (NLV 3-1, the novel peptide), tetramers 1 µg/mL, 30 min on ice, SP, DP and SW gates expanded about 10 days between rounds ('two to three rounds of selection' in the Methods), gate SW: higher = more of the variant in the gate that binds the novel peptide and not the original one = switched binding. Fold enrichment of the CDR3 variant in one FACS gate of a two-tetramer stain, unresolved parent, parent is a CDR3 fragment, scale: fold enrichment, numbering: sequential-on-construct, sequence starts at 1
row,Variant,enrichment
1,[…] (CDR3 as printed); K10P derived by comparing it with the table's wild-type CDR3 AGPMKTSYDKVI,0
2,[…] (CDR3 as printed); D9I derived by comparing it with the table's wild-type CDR3 AGPMKTSYDKVI,0
3,[…] (CDR3 as printed); I12H derived by comparing it with the table's wild-type CDR3 AGPMKTSYDKVI,0
4,[…] (CDR3 as printed); A1K derived by comparing it with the table's wild-type CDR3 AGPMKTSYDKVI,1.01
5,[…] (CDR3 as printed); I12P derived by comparing it with the table's wild-type CDR3 AGPMKTSYDKVI,0
6,[…] (CDR3 as printed); G2D derived by comparing it with the table's wild-type CDR3 AGPMKTSYDKVI,0
7,[…] (CDR3 as printed); D9A derived by comparing it with the table's wild-type CDR3 AGPMKTSYDKVI,0
8,[…] (CDR3 as printed); K5L derived by comparing it with the table's wild-type CDR3 AGPMKTSYDKVI,0
9,[…] (CDR3 as printed); K10R derived by comparing it with the table's wild-type CDR3 AGPMKTSYDKVI,0
10,[…] (CDR3 as printed); D9Q derived by comparing it with the table's wild-type CDR3 AGPMKTSYDKVI,0
11,[…] (CDR3 as printed); K5N derived by comparing it with the table's wild-type CDR3 AGPMKTSYDKVI,0
12,[…] (CDR3 as printed); G2C derived by comparing it with the table's wild-type CDR3 AGPMKTSYDKVI,0
13,[…] (CDR3 as printed); A1F derived by comparing it with the table's wild-type CDR3 AGPMKTSYDKVI,0
14,[…] (CDR3 as printed); D9Y derived by comparing it with the table's wild-type CDR3 AGPMKTSYDKVI,0
15,[…] (CDR3 as printed); K5E derived by comparing it with the table's wild-type CDR3 AGPMKTSYDKVI,0
16,[…] (CDR3 as printed); K5M derived by comparing it with the table's wild-type CDR3 AGPMKTSYDKVI,0
17,[…] (CDR3 as printed); G2R derived by comparing it with the table's wild-type CDR3 AGPMKTSYDKVI,0
18,[…] (CDR3 as printed); D9V derived by comparing it with the table's wild-type CDR3 AGPMKTSYDKVI,0
19,[…] (CDR3 as printed); K5R derived by comparing it with the table's wild-type CDR3 AGPMKTSYDKVI,0
20,[…] (CDR3 as printed); G2L derived by comparing it with the table's wild-type CDR3 AGPMKTSYDKVI,0
21,[…] (CDR3 as printed); A1T derived by comparing it with the table's wild-type CDR3 AGPMKTSYDKVI,0

row,Variant,enrichment
1,[…] (CDR3 as printed); D9H derived by comparing it with the table's wild-type CDR3 AGPMKTSYDKVI,0
2,[…] (CDR3 as printed); I12S derived by comparing it with the table's wild-type CDR3 AGPMKTSYDKVI,0
3,[…] (CDR3 as printed); K5T derived by comparing it with the table's wild-type CDR3 AGPMKTSYDKVI,0
4,[…] (CDR3 as printed); K10V derived by comparing it with the table's wild-type CDR3 AGPMKTSYDKVI,0
5,[…] (CDR3 as printed); A1H derived by comparing it with the table's wild-type CDR3 AGPMKTSYDKVI,0
6,[…] (CDR3 as printed); A1C derived by comparing it with the table's wild-type CDR3 AGPMKTSYDKVI,0
7,[…] (CDR3 as printed); I12T derived by comparing it with the table's wild-type CDR3 AGPMKTSYDKVI,0
8,[…] (CDR3 as printed); A1S derived by comparing it with the table's wild-type CDR3 AGPMKTSYDKVI,0
9,[…] (CDR3 as printed); A1Q derived by comparing it with the table's wild-type CDR3 AGPMKTSYDKVI,0
10,[…] (CDR3 as printed); G2S derived by comparing it with the table's wild-type CDR3 AGPMKTSYDKVI,0
11,[…] (CDR3 as printed); D9K derived by comparing it with the table's wild-type CDR3 AGPMKTSYDKVI,0
12,[…] (CDR3 as printed); I12D derived by comparing it with the table's wild-type CDR3 AGPMKTSYDKVI,0
13,[…] (CDR3 as printed); D9C derived by comparing it with the table's wild-type CDR3 AGPMKTSYDKVI,0
14,[…] (CDR3 as printed); I12F derived by comparing it with the table's wild-type CDR3 AGPMKTSYDKVI,0
15,[…] (CDR3 as printed); A1D derived by comparing it with the table's wild-type CDR3 AGPMKTSYDKVI,0
16,[…] (CDR3 as printed); K5S derived by comparing it with the table's wild-type CDR3 AGPMKTSYDKVI,0
17,[…] (CDR3 as printed); A1I derived by comparing it with the table's wild-type CDR3 AGPMKTSYDKVI,0
18,[…] (CDR3 as printed); G2Q derived by comparing it with the table's wild-type CDR3 AGPMKTSYDKVI,0
19,[…] (CDR3 as printed); I12K derived by comparing it with the table's wild-type CDR3 AGPMKTSYDKVI,0
20,[…] (CDR3 as printed); D9T derived by comparing it with the table's wild-type CDR3 AGPMKTSYDKVI,0
21,[…] (CDR3 as printed); D9S derived by comparing it with the table's wild-type CDR3 AGPMKTSYDKVI,0

row,Variant,enrichment
1,[…] (CDR3 as printed); G2T derived by comparing it with the table's wild-type CDR3 AGPMKTSYDKVI,0
2,[…] (CDR3 as printed); A1P derived by comparing it with the table's wild-type CDR3 AGPMKTSYDKVI,0
3,[…] (CDR3 as printed); K10N derived by comparing it with the table's wild-type CDR3 AGPMKTSYDKVI,0
4,[…] (CDR3 as printed); A1M derived by comparing it with the table's wild-type CDR3 AGPMKTSYDKVI,0
5,[…] (CDR3 as printed); A1G derived by comparing it with the table's wild-type CDR3 AGPMKTSYDKVI,0
6,[…] (CDR3 as printed); K10M derived by comparing it with the table's wild-type CDR3 AGPMKTSYDKVI,0
7,[…] (CDR3 as printed); G2W derived by comparing it with the table's wild-type CDR3 AGPMKTSYDKVI,0
8,[…] (CDR3 as printed); K10T derived by comparing it with the table's wild-type CDR3 AGPMKTSYDKVI,0
9,[…] (CDR3 as printed); A1E derived by comparing it with the table's wild-type CDR3 AGPMKTSYDKVI,0
10,[…] (CDR3 as printed); K5G derived by comparing it with the table's wild-type CDR3 AGPMKTSYDKVI,0
11,[…] (CDR3 as printed); K10Q derived by comparing it with the table's wild-type CDR3 AGPMKTSYDKVI,0
12,[…] (CDR3 as printed); M4D derived by comparing it with the table's wild-type CDR3 AGPMKTSYDKVI,0
13,[…] (CDR3 as printed); K5D derived by comparing it with the table's wild-type CDR3 AGPMKTSYDKVI,0
14,[…] (CDR3 as printed); I12A derived by comparing it with the table's wild-type CDR3 AGPMKTSYDKVI,0
15,[…] (CDR3 as printed); K5V derived by comparing it with the table's wild-type CDR3 AGPMKTSYDKVI,0
16,[…] (CDR3 as printed); G2I derived by comparing it with the table's wild-type CDR3 AGPMKTSYDKVI,0
17,[…] (CDR3 as printed); G2N derived by comparing it with the table's wild-type CDR3 AGPMKTSYDKVI,0
18,[…] (CDR3 as printed); I12N derived by comparing it with the table's wild-type CDR3 AGPMKTSYDKVI,0
19,[…] (CDR3 as printed); G2H derived by comparing it with the table's wild-type CDR3 AGPMKTSYDKVI,0
20,[…] (CDR3 as printed); K10D derived by comparing it with the table's wild-type CDR3 AGPMKTSYDKVI,0
21,[…] (CDR3 as printed); A1V derived by comparing it with the table's wild-type CDR3 AGPMKTSYDKVI,0

row,Variant,enrichment
1,[…] (CDR3 as printed); G2F derived by comparing it with the table's wild-type CDR3 AGPMKTSYDKVI,0
2,[…] (CDR3 as printed); K5F derived by comparing it with the table's wild-type CDR3 AGPMKTSYDKVI,0
3,[…] (CDR3 as printed); G2M derived by comparing it with the table's wild-type CDR3 AGPMKTSYDKVI,0
4,[…] (CDR3 as printed); I12L derived by comparing it with the table's wild-type CDR3 AGPMKTSYDKVI,0
5,[…] (CDR3 as printed); D9G derived by comparing it with the table's wild-type CDR3 AGPMKTSYDKVI,0
6,[…] (CDR3 as printed); K10Y derived by comparing it with the table's wild-type CDR3 AGPMKTSYDKVI,0
7,[…] (CDR3 as printed); G2K derived by comparing it with the table's wild-type CDR3 AGPMKTSYDKVI,0
8,[…] (CDR3 as printed); D9R derived by comparing it with the table's wild-type CDR3 AGPMKTSYDKVI,0
9,[…] (CDR3 as printed); K10F derived by comparing it with the table's wild-type CDR3 AGPMKTSYDKVI,0
10,[…] (CDR3 as printed); M4A derived by comparing it with the table's wild-type CDR3 AGPMKTSYDKVI,0
11,[…] (CDR3 as printed); K10I derived by comparing it with the table's wild-type CDR3 AGPMKTSYDKVI,0
12,[…] (CDR3 as printed); M4F derived by comparing it with the table's wild-type CDR3 AGPMKTSYDKVI,0
13,[…] (CDR3 as printed); G2E derived by comparing it with the table's wild-type CDR3 AGPMKTSYDKVI,0
14,[…] (CDR3 as printed); K10C derived by comparing it with the table's wild-type CDR3 AGPMKTSYDKVI,0
15,[…] (CDR3 as printed); I12C derived by comparing it with the table's wild-type CDR3 AGPMKTSYDKVI,0
16,[…] (CDR3 as printed); I12G derived by comparing it with the table's wild-type CDR3 AGPMKTSYDKVI,0
17,[…] (CDR3 as printed); M4E derived by comparing it with the table's wild-type CDR3 AGPMKTSYDKVI,0
18,[…] (CDR3 as printed); K5H derived by comparing it with the table's wild-type CDR3 AGPMKTSYDKVI,0
19,[…] (CDR3 as printed); A1Y derived by comparing it with the table's wild-type CDR3 AGPMKTSYDKVI,0.533
20,[…] (CDR3 as printed); G2A derived by comparing it with the table's wild-type CDR3 AGPMKTSYDKVI,0
21,[…] (CDR3 as printed); G2V derived by comparing it with the table's wild-type CDR3 AGPMKTSYDKVI,0
